From patent US20260209266A1 come the findings set out here.

Experiment [1] deals with Protein A (immobilized on a chromatography column) (UniProt P38507). In words: Protein A chromatography, linear pH gradient.
Experiment [2] has the same target. In words: Protein A chromatography (rProtein A FF), step gradient, 20 mM sodium citrate, 1 M NaCl.

As for “IgG1 heterodimer having two IgG1 heavy chains identical but for an H435R/Y436F dipeptide modification in one CH3 domain (antibody)”, in experiment [1], the elution pH from Protein A column was 3.9 pH.
Regarding “differentially modified heterodimeric human IgG2 Fc/ΔAdpFc (from UniProt P01859 99-219; P01859 99-219)”, the elution pH from Protein A column in experiment [2] came to 4.5 pH.
Still for that read-out and setting: in the case of “differentially modified heterodimeric human IgG4 (Fc/ΔAdpFc) (from UniProt P01861 99-220; P01861 99-220)” it was 4 pH.
